The record followed here is patent publication US8975044B2, “Polynucleotides encoding for frizzled-binding agents and uses thereof” (OncoMed Pharmaceuticals, Inc., priority 2008, dated 2015).

In one assay the test system is ACTA2. In words: ACTA2 gene expression in treated OMP-PN4 tumors by microarray. In kind it is in vivo, NOD/SCID mice. To be noted: 10 mg/kg once a week for 6 weeks; tumor stroma. The method, then: (§1) As described in Example 7 above, OMP-PN4 tumor-bearing NOD/SCID mice were treated with control Ab (LZ-1), 18R5, gemcitabine, or the combination of 18R5 and gemcitabine once a week for 6 weeks. The antibodies were administered at a concentration of 10 mg/kg. After they were harvested, the tumors from that experiment were analyzed for the expression of Wnt target genes at both the RNA and protein levels, using microarray and IHC, respectively.
Total RNA was extracted from the tumors, amplified, and subjected to microarray analysis. Total RNAs were amplified using the Ovation RNA Amplification System V2 (NuGEN, San Carlos, Calif.). Resulting amplified, antisense ss-cDNA was fragmented and biotinylated using the FL-Ovation cDNA Biotin Module V2 (NuGEN) for use on Affymetrix chips. Affymetrix HG-U133 plus 2 or MG 430 2.0 oligonucleotide microarrays were used in these experiments (performed at Almac Diagnostics, Durham, N.C.). […] The quality of the cDNA and the fragmented cDNA were assessed by spectrophotometer and the Bioanalyzer before the array hybridization. The scanned raw chip data were quantified and scaled using the GCOS software package (Affymetrix) and subjected to a comprehensive assessment of Gene Chip Quality Control recommended by Affymetrix to detect any chips defects and outliers, which were excluded from the subsequent data analysis. […]

The test system of assay [1] is smooth muscle actin (SMA). In words: Smooth Muscle Actin alpha immunofluorescence on treated OMP-PN4 tumors. Type of assay: in vivo, NOD/SCID mice. To be noted: 10 mg/kg once a week for 6 weeks; vs control mAb. On the procedure:
as §1
In preparation for Smooth Muscle Actin alpha (SMAa) immunofluorescence, tumor tissue was frozen using OCT. 4 micron sections were obtained and stored frozen at −80° C. For SMAa staining, tissue was fixed using chilled acetone at −20° C. for 15 minutes and then allowed to dry and come to room temperature and then marked using a hydrophobic PAP pen. Slides were then washed using phosphate buffered saline (PBS). Tissue was blocked using normal horse serum R.T.U. (Vector Labs) for 2 hours at room temperature. Primary antibody staining was performed with 1:10,000 dilution of FITC-conjugated Smooth muscle actin alpha antibody (cline 1A4, #F3777, SIGMA) for 1 hour. Sections were washed 3 times using PBS containing 0.1% triton X-100. Slides were then air-dried and then mounted using Hard set mounting medium containing DAPI (vectashied H-500).

The test system of assay [2] is OMP-C28 colon tumor xenografts. In words: OMP-C28 colon tumor xenograft growth. To be noted: 18R5 10 mg/kg IP twice weekly, single agent; p=0.02. In kind it is in vivo, NOD/SCID mice. The method, then: In another embodiment anti-FZD antibodies were analyzed for their ability to reduce the growth of OMP-C28 colon tumor xenografts. Dissociated human OMP-C28 cells (10,000 per animal) were injected subcutaneously into 6-8 week old male NOD/SCID mice. Tumor growth was monitored weekly and tumor measurements were initiated once tumors were palpable. On day 24 mice with average tumor volume of 129 mm^3 were randomized into 4 groups of 10 animals each. Animals were injected with either control antibody, or 18R5 IgG antibody (10 mg/kg), or irinotecan (7.5 mg/kg) or combination of both 18R5 and irinotecan. Administration of the antibodies and irinotecan was performed via injection into the intra-peritoneal cavity, twice weekly. Tumors were measured twice a week and tumor volume was determined using the formula ½(a×b^2); where a=length, and b=breadth. Data are expressed as mean and mean±S.E.M. Group means were compared using Student's two-tailed, unpaired t test.

In assay [3] the test system is OMP-LU24 human lung tumors. In words: OMP-LU24 lung tumor xenograft growth. In kind it is in vivo, NOD-SCID mice. As to conditions: antibody 10 mg/kg IP once per week, Taxol 15 mg/kg IP once per week. On the procedure:
50,000 OMP-LU24 human lung tumor cells were injected subcutaneously in NOD-SCID mice. Tumors were allowed to grow for 27 days until they reached an average volume of 143 mm^3. The animals were randomized into 4 groups (n=9 per group) and treated with either control antibody (“Control Ab”), anti-FZD 18R5 (“18R5”), Taxol® (“Taxol”) or the combination of 18R5 plus Taxol® (“18R5+Taxol”). Antibodies were dosed at 10 mg/kg intraperitoneal (IP), once per week and Taxol® was dosed at 15 mg/kg, IP, once per week.

The next assay deals with PN13 tumors. Description: Alcian blue and ki67 staining of treated PN13 tumor sections. Type of assay: in vivo, NOD/SCID mice. As to conditions: vs control antibody. On the procedure:
FIG. 43. Treatment with anti-FZD antibody 18R5 promotes differentiation of tumor cells into non-proliferative mucinous cells. NOD/SCID mice were injected with 50,000 OMP-PN13 pancreatic tumor cells and on day 23, mice with tumors of average volume of about 107 mm^3 were randomized, and treatment with control antibody or 18R5 was initiated four days later. After 20 days tumors were collected and sectioned. Tumor sections from 18R5 treated mice or control antibody treated mice were stained with alcian blue stain to reveal mucinous cells and by immunohistochemistry with antibody to ki67 to reveal proliferative cells. Exemplary mucinous cells and proliferative cells are highlighted by arrows.
Increased mucinous cells were also noted in a second pancreatic tumor line, PN13, following treatment with 18R5 […] (FIG. 43). In this experiment mice bearing PN13 tumors were treated as described above (Example 7). Tumors sections were stained with alcian blue to reveal mucinous cells and also stained by immunohistochemistry with an antibody to ki67 to reveal cells undergoing proliferation. […] Additionally, the frequency of ki67 positive cells was reduced by 18R5 treatment. […] This provides evidence that 18R5 treatment is promoting the differentiation of tumor cells into non-proliferative progeny.

B1: 18R5: human anti-FZD antibody; VH SEQ ID NO:10 (as 18R8), VL SEQ ID NO:14; binds FZD1, 2, 5, 7, 8 (antibody, V domains shown)
VH: EVQLVESGGGLVQPGGSLRLSCAASGFTFSHYTLSWVRQAPGKGLEWVSVISGDGSYTYYADSVKGRFTISSDNSKNTLYLQMNSLRAEDTAVYYCARNFIKYVFANWGQGTLVTVSS
VL: DIELTQPPSVSVAPGQTARISCSGDNIGSFYVHWYQQKPGQAPVLVIYDKSNRPSGIPERFSGSNSGNTATLTISGTQAEDEADYYCQSYANTLSLVFGGGTKLTVLG
modifications: 18R5/18R8 heavy chain variable region (VH); 18R5 light chain variable region (VL)
With B1, the ACTA2 expression result with ACTA2 is reported as “decreased levels of ACTA2 expression”. In addition, the “Smooth Muscle Actin alpha (SMAa) amount” value in assay [1] was “Reduced amounts of SMAa”. Further, in assay [2], the “reduction in tumor growth” value is on record as 40%. Also, the xenograft tumor growth result in assay [3] is “inhibits OMP-LU24 xenograft tumor growth”. In the assay on PN13 tumors, the “alcian blue positive mucinous cells” value was “greatly increased numbers of alcian blue positive mucinous cells” and the “frequency of ki67 positive cells” value is given as “reduced”.
